# Experimental data from US20190233493A1 (Sanofi, published 2019).
# *1 amine or outer side, *2 acyl side, *3 side chain or, on linkers, in order; H or OH if unused. Side-chain parts run from the residue outwards. [ ]: non-standard residue; d: D form. The star is where a group is joined. PEG12 = NCCOCCOCCOCCOCCOCCOCCOCCOCCOCCOCCOCCOCCC(=O)O; γGlu = O=C(O)[C@H](CCC(=O)[*:2])N[*:1]; Stearoyl = CCCCCCCCCCCCCCCCCC(=O)*; Palmitoyl = CCCCCCCCCCCCCCCC(=O)*; Nle = CCCC[C@H](N)C(=O)O; Aib = CC(C)(N)C(=O)O
# T1: RXFP1 receptor (UniProt Q9HBX9 1-757, limits assumed)
# T1 sequence (looked up): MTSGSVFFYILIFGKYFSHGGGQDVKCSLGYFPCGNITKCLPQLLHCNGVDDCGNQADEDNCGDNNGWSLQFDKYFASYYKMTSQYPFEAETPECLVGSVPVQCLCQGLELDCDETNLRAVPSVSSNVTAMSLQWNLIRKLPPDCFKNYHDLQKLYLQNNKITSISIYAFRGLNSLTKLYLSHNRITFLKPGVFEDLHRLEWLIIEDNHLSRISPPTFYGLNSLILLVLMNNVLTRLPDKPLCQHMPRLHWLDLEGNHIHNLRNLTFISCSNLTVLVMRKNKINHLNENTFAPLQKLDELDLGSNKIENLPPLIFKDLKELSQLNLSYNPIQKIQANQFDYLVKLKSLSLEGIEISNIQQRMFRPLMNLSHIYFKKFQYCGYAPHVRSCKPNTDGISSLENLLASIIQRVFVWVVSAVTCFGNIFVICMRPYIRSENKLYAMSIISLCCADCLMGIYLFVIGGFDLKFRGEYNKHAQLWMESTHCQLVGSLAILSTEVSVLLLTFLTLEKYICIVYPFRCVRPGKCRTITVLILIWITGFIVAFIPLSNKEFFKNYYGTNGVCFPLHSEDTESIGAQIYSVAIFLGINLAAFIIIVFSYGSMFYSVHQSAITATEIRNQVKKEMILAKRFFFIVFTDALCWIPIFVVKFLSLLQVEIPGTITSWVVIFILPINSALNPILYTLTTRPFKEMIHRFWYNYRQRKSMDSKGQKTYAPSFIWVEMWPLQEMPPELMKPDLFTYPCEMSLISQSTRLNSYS
# Biological target: T1, RXFP1 receptor
# Assay: cell-based or functional assay
"EC50 (nM), OVCAR 5 cells (cAMP)","EMax, OVCAR 5 cells (cAMP)",Binder
28.5 nM,93%,Ac-LEGREKVRAQI[Aib][Aib]EG[Nle]STWS[Aib]RKK([γGlu-Stearoyl])-NH2 (SMILES CCCCCCCCCCCCCCCCCC(=O)N[C@@H](CCC(=O)NCCCC[C@H](NC(=O)[C@H](CCCCN)NC(=O)[C@H](CCCNC(=N)N)NC(=O)C(C)(C)NC(=O)[C@H](CO)NC(=O)[C@H](Cc1c[nH]c2ccccc12)NC(=O)[C@@H](NC(=O)[C@H](CO)NC(=O)[C@H](CCCC)NC(=O)CNC(=O)[C@H](CCC(=O)O)NC(=O)C(C)(C)NC(=O)C(C)(C)NC(=O)[C@@H](NC(=O)[C@H](CCC(N)=O)NC(=O)[C@H](C)NC(=O)[C@H](CCCNC(=N)N)NC(=O)[C@@H](NC(=O)[C@H](CCCCN)NC(=O)[C@H](CCC(=O)O)NC(=O)[C@H](CCCNC(=N)N)NC(=O)CNC(=O)[C@H](CCC(=O)O)NC(=O)[C@H](CC(C)C)NC(C)=O)C(C)C)[C@@H](C)CC)[C@@H](C)O)C(N)=O)C(=O)O) [peptide of SEQ ID NO: 3]
38.6 nM,88%,Ac-LEGREKVRAQI[Aib][Aib]EG[Nle]STWS[Aib]RKK(Ac)[PEG12]K(Stearoyl)-NH2 (SMILES CCCCCCCCCCCCCCCCCC(=O)NCCCC[C@H](NC(=O)CCOCCOCCOCCOCCOCCOCCOCCOCCOCCOCCOCCOCCNC(=O)[C@H](CCCCNC(C)=O)NC(=O)[C@H](CCCCN)NC(=O)[C@H](CCCNC(=N)N)NC(=O)C(C)(C)NC(=O)[C@H](CO)NC(=O)[C@H](Cc1c[nH]c2ccccc12)NC(=O)[C@@H](NC(=O)[C@H](CO)NC(=O)[C@H](CCCC)NC(=O)CNC(=O)[C@H](CCC(=O)O)NC(=O)C(C)(C)NC(=O)C(C)(C)NC(=O)[C@@H](NC(=O)[C@H](CCC(N)=O)NC(=O)[C@H](C)NC(=O)[C@H](CCCNC(=N)N)NC(=O)[C@@H](NC(=O)[C@H](CCCCN)NC(=O)[C@H](CCC(=O)O)NC(=O)[C@H](CCCNC(=N)N)NC(=O)CNC(=O)[C@H](CCC(=O)O)NC(=O)[C@H](CC(C)C)NC(C)=O)C(C)C)[C@@H](C)CC)[C@@H](C)O)C(N)=O) [peptide of SEQ ID NO: 21]
3.62 nM,89%,Ac-LEGREKVRAQI[Aib][Aib]EGMSTWS[Aib]RK[PEG12]K([γGlu-γGlu-γGlu-Palmitoyl])-NH2 (SMILES CCCCCCCCCCCCCCCC(=O)N[C@@H](CCC(=O)N[C@@H](CCC(=O)N[C@@H](CCC(=O)NCCCC[C@H](NC(=O)CCOCCOCCOCCOCCOCCOCCOCCOCCOCCOCCOCCOCCNC(=O)[C@H](CCCCN)NC(=O)[C@H](CCCNC(=N)N)NC(=O)C(C)(C)NC(=O)[C@H](CO)NC(=O)[C@H](Cc1c[nH]c2ccccc12)NC(=O)[C@@H](NC(=O)[C@H](CO)NC(=O)[C@H](CCSC)NC(=O)CNC(=O)[C@H](CCC(=O)O)NC(=O)C(C)(C)NC(=O)C(C)(C)NC(=O)[C@@H](NC(=O)[C@H](CCC(N)=O)NC(=O)[C@H](C)NC(=O)[C@H](CCCNC(=N)N)NC(=O)[C@@H](NC(=O)[C@H](CCCCN)NC(=O)[C@H](CCC(=O)O)NC(=O)[C@H](CCCNC(=N)N)NC(=O)CNC(=O)[C@H](CCC(=O)O)NC(=O)[C@H](CC(C)C)NC(C)=O)C(C)C)[C@@H](C)CC)[C@@H](C)O)C(N)=O)C(=O)O)C(=O)O)C(=O)O) [peptide of SEQ ID NO: 23]
0.57 nM,85%,Ac-LEGREKVRAK(Ac)I[Aib][Aib]EG[Nle]STWS[Aib]RKK(Ac)[PEG12]K([γGlu-γGlu-γGlu-Palmitoyl])-NH2 (SMILES CCCCCCCCCCCCCCCC(=O)N[C@@H](CCC(=O)N[C@@H](CCC(=O)N[C@@H](CCC(=O)NCCCC[C@H](NC(=O)CCOCCOCCOCCOCCOCCOCCOCCOCCOCCOCCOCCOCCNC(=O)[C@H](CCCCNC(C)=O)NC(=O)[C@H](CCCCN)NC(=O)[C@H](CCCNC(=N)N)NC(=O)C(C)(C)NC(=O)[C@H](CO)NC(=O)[C@H](Cc1c[nH]c2ccccc12)NC(=O)[C@@H](NC(=O)[C@H](CO)NC(=O)[C@H](CCCC)NC(=O)CNC(=O)[C@H](CCC(=O)O)NC(=O)C(C)(C)NC(=O)C(C)(C)NC(=O)[C@@H](NC(=O)[C@H](CCCCNC(C)=O)NC(=O)[C@H](C)NC(=O)[C@H](CCCNC(=N)N)NC(=O)[C@@H](NC(=O)[C@H](CCCCN)NC(=O)[C@H](CCC(=O)O)NC(=O)[C@H](CCCNC(=N)N)NC(=O)CNC(=O)[C@H](CCC(=O)O)NC(=O)[C@H](CC(C)C)NC(C)=O)C(C)C)[C@@H](C)CC)[C@@H](C)O)C(N)=O)C(=O)O)C(=O)O)C(=O)O) [peptide of SEQ ID NO: 26]
21.4 nM,104%,Ac-LEGREKVRAQI[Aib][Aib]EG[Nle]STWS[Aib]RKK[PEG12]K([γGlu-Stearoyl])-NH2 (SMILES CCCCCCCCCCCCCCCCCC(=O)N[C@@H](CCC(=O)NCCCC[C@H](NC(=O)CCOCCOCCOCCOCCOCCOCCOCCOCCOCCOCCOCCOCCNC(=O)[C@H](CCCCN)NC(=O)[C@H](CCCCN)NC(=O)[C@H](CCCNC(=N)N)NC(=O)C(C)(C)NC(=O)[C@H](CO)NC(=O)[C@H](Cc1c[nH]c2ccccc12)NC(=O)[C@@H](NC(=O)[C@H](CO)NC(=O)[C@H](CCCC)NC(=O)CNC(=O)[C@H](CCC(=O)O)NC(=O)C(C)(C)NC(=O)C(C)(C)NC(=O)[C@@H](NC(=O)[C@H](CCC(N)=O)NC(=O)[C@H](C)NC(=O)[C@H](CCCNC(=N)N)NC(=O)[C@@H](NC(=O)[C@H](CCCCN)NC(=O)[C@H](CCC(=O)O)NC(=O)[C@H](CCCNC(=N)N)NC(=O)CNC(=O)[C@H](CCC(=O)O)NC(=O)[C@H](CC(C)C)NC(C)=O)C(C)C)[C@@H](C)CC)[C@@H](C)O)C(N)=O)C(=O)O) [peptide of SEQ ID NO: 22]
1.21 nM,95%,Ac-LEGREKVRAK(Ac)I[Aib][Aib]EGMSTWS[Aib]RK[PEG12]K([γGlu-γGlu-γGlu-Palmitoyl])-NH2 (SMILES CCCCCCCCCCCCCCCC(=O)N[C@@H](CCC(=O)N[C@@H](CCC(=O)N[C@@H](CCC(=O)NCCCC[C@H](NC(=O)CCOCCOCCOCCOCCOCCOCCOCCOCCOCCOCCOCCOCCNC(=O)[C@H](CCCCN)NC(=O)[C@H](CCCNC(=N)N)NC(=O)C(C)(C)NC(=O)[C@H](CO)NC(=O)[C@H](Cc1c[nH]c2ccccc12)NC(=O)[C@@H](NC(=O)[C@H](CO)NC(=O)[C@H](CCSC)NC(=O)CNC(=O)[C@H](CCC(=O)O)NC(=O)C(C)(C)NC(=O)C(C)(C)NC(=O)[C@@H](NC(=O)[C@H](CCCCNC(C)=O)NC(=O)[C@H](C)NC(=O)[C@H](CCCNC(=N)N)NC(=O)[C@@H](NC(=O)[C@H](CCCCN)NC(=O)[C@H](CCC(=O)O)NC(=O)[C@H](CCCNC(=N)N)NC(=O)CNC(=O)[C@H](CCC(=O)O)NC(=O)[C@H](CC(C)C)NC(C)=O)C(C)C)[C@@H](C)CC)[C@@H](C)O)C(N)=O)C(=O)O)C(=O)O)C(=O)O) [peptide of SEQ ID NO: 25]
3.2 nM,74%,Ac-LEGREKVRAQI[Aib][Aib]EG[Nle]STWS[Aib]RK[PEG12]K([γGlu-γGlu-γGlu-Palmitoyl])-NH2 (SMILES CCCCCCCCCCCCCCCC(=O)N[C@@H](CCC(=O)N[C@@H](CCC(=O)N[C@@H](CCC(=O)NCCCC[C@H](NC(=O)CCOCCOCCOCCOCCOCCOCCOCCOCCOCCOCCOCCOCCNC(=O)[C@H](CCCCN)NC(=O)[C@H](CCCNC(=N)N)NC(=O)C(C)(C)NC(=O)[C@H](CO)NC(=O)[C@H](Cc1c[nH]c2ccccc12)NC(=O)[C@@H](NC(=O)[C@H](CO)NC(=O)[C@H](CCCC)NC(=O)CNC(=O)[C@H](CCC(=O)O)NC(=O)C(C)(C)NC(=O)C(C)(C)NC(=O)[C@@H](NC(=O)[C@H](CCC(N)=O)NC(=O)[C@H](C)NC(=O)[C@H](CCCNC(=N)N)NC(=O)[C@@H](NC(=O)[C@H](CCCCN)NC(=O)[C@H](CCC(=O)O)NC(=O)[C@H](CCCNC(=N)N)NC(=O)CNC(=O)[C@H](CCC(=O)O)NC(=O)[C@H](CC(C)C)NC(C)=O)C(C)C)[C@@H](C)CC)[C@@H](C)O)C(N)=O)C(=O)O)C(=O)O)C(=O)O) [peptide of SEQ ID NO: 24]
0.3 nM,86%,Ac-LEGREKVR[Aib]K(Ac)I[Aib][Aib]EG[Nle]STWS[Aib]RKK(Ac)[PEG12]K([γGlu-γGlu-γGlu-Palmitoyl])-NH2 (SMILES CCCCCCCCCCCCCCCC(=O)N[C@@H](CCC(=O)N[C@@H](CCC(=O)N[C@@H](CCC(=O)NCCCC[C@H](NC(=O)CCOCCOCCOCCOCCOCCOCCOCCOCCOCCOCCOCCOCCNC(=O)[C@H](CCCCNC(C)=O)NC(=O)[C@H](CCCCN)NC(=O)[C@H](CCCNC(=N)N)NC(=O)C(C)(C)NC(=O)[C@H](CO)NC(=O)[C@H](Cc1c[nH]c2ccccc12)NC(=O)[C@@H](NC(=O)[C@H](CO)NC(=O)[C@H](CCCC)NC(=O)CNC(=O)[C@H](CCC(=O)O)NC(=O)C(C)(C)NC(=O)C(C)(C)NC(=O)[C@@H](NC(=O)[C@H](CCCCNC(C)=O)NC(=O)C(C)(C)NC(=O)[C@H](CCCNC(=N)N)NC(=O)[C@@H](NC(=O)[C@H](CCCCN)NC(=O)[C@H](CCC(=O)O)NC(=O)[C@H](CCCNC(=N)N)NC(=O)CNC(=O)[C@H](CCC(=O)O)NC(=O)[C@H](CC(C)C)NC(C)=O)C(C)C)[C@@H](C)CC)[C@@H](C)O)C(N)=O)C(=O)O)C(=O)O)C(=O)O) [peptide of SEQ ID NO: 27]
